Data taken from publication PMC5454376, “Molecular mechanism of Gαi activation by non-GPCR proteins with a Gα-Binding and Activating motif” (Nature Communications, 2017).

B1: Human His-Gαi3 WT [human] / Fluorescein-labelled GIV peptide (residues 1,671–1,701) [modified: 5,6-carboxyfluorescein coupled to the resin-bound peptide after chain elongation; 5,6-carboxyfluorescein coupled to the resin-bound … (parent)
chain 1: MGCTLSAEDKAAVERSKMIDRNLREDGEKAAKEVKLLLLGAGESGKSTIVKQMKIIHEDGYSEDECKQYKVVVYSNTIQSIIAIIRAMGRLKIDFGEAARADDARQLFVLAGSAEEGVMTPELAGVIKRLWRDGGVQACFSRSREYQLNDSASYYLNDLDRISQSNYIPTQQDVLRTRVKTTGIVETHFTFKDLYFKMFDVGGQRSERKKWIHCFEGVTAIIFCVALSDYDLVLAEDEEMNRMHESMKLFDSICNNKWFTETSIILFLNKKDLFEEKIKRSPLTICYPEYTGSNTYEEAAAYIQCQFEDLNRRKDTKEIYTHFTCATDTKNVQFVFDAVTDVIIKNNLKECGLY
chain 2: KTGSPGSEVVTLQQFLEESNKLTSVQIKSSS

Variants of: B1
Experiment: fluorescence polarisation
Conditions: with Fluorescein-labelled GIV peptide (residues 1,671–1,701) [modified: 5,6-carboxyfluorescein coupled to the resin-bound peptide after chain elongation

Variant	Kd [µM]	ratio to parent
chain 1 MGCTLSAEDKAAVERSKMIDRNLREDGEKAAKEVKLLLLGAGESGKSTIVKQMKIIHEDGYSEDECKQYKVVVYSNTIQSIIAIIRAMGRLKIDFGEAARADDARQLFVLAGSAEEGVMTPELAGVIKRLWRDGGVQACFSRSREYQLNDSASYYLNDLDRISQSNYIPTQQDVLRTRVKTTGIVETHFTFKDLYFKMFDVGGQRSERKKWIHCAEGVTAIIFCVALSDYDLVLAEDEEMNRMHESMKLFDSICNNKWFTETSIILFLNKKDLFEEKIKRSPLTICYPEYTGSNTYEEAAAYIQCQFEDLNRRKDTKEIYTHFTCATDTKNVQFVFDAVTDVIIKNNLKECGLY [chain 1 F215A]	> 10	> 20
chain 1 MGCTLSAEDKAAVERSKMIDRNLREDGEKAAKEVKLLLLGARESGKSTIVKQMKIIHEDGYSEDECKQYKVVVYSNTIQSIIAIIRAMGRLKIDFGEAARADDARQLFVLAGSAEEGVMTPELAGVIKRLWRDGGVQACFSRSREYQLNDSASYYLNDLDRISQSNYIPTQQDVLRTRVKTTGIVETHFTFKDLYFKMFDVGGQRSERKKWIHCFEGVTAIIFCVALSDYDLVLAEDEEMNRMHESMKLFDSICNNKWFTETSIILFLNKKDLFEEKIKRSPLTICYPEYTGSNTYEEAAAYIQCQFEDLNRRKDTKEIYTHFTCATDTKNVQFVFDAVTDVIIKNNLKECGLY [chain 1 G42R]	0.377	0.649
chain 1 MGCTLSAEDKAAVERSKMIDRNLREDGEKAAKEVALLLLGAGESGKSTIVKQMKIIHEDGYSEDECKQYKVVVYSNTIQSIIAIIRAMGRLKIDFGEAARADDARQLFVLAGSAEEGVMTPELAGVIKRLWRDGGVQACFSRSREYQLNDSASYYLNDLDRISQSNYIPTQQDVLRTRVKTTGIVETHFTFKDLYFKMFDVGGQRSERKKWIHCFEGVTAIIFCVALSDYDLVLAEDEEMNRMHESMKLFDSICNNKWFTETSIILFLNKKDLFEEKIKRSPLTICYPEYTGSNTYEEAAAYIQCQFEDLNRRKDTKEIYTHFTCATDTKNVQFVFDAVTDVIIKNNLKECGLY [chain 1 K35A]	> 10	> 20
chain 1 MGCTLSAEDKAAVERSKMIDRNLREDGEKAAKEVKLLLLGAGESGKSTIVKQMKIIHEDGYSEDECKQYKVVVYSNTIQSIIAIIRAMGRLKIDFGEAARADDARQLFVLAGSAEEGVMTPELAGVIKRLWRDGGVQACFSRSREYQLNDSASYYLNDLDRISQSNYIPTQQDVLRTRVKTTGIVETHFTFKDLYFKMFDVGGQRSERKKWIHCFEGVTAIIFCVALSDYDLVLAEDEEMNRMHESMKLFDSICNEKWFTETSIILFLNKKDLFEEKIKRSPLTICYPEYTGSNTYEEAAAYIQCQFEDLNRRKDTKEIYTHFTCATDTKNVQFVFDAVTDVIIKNNLKECGLY [chain 1 N256E]	> 20	> 40
chain 1 MGCTLSAEDKAAVERSKMIDRNLREDGEKAAKEVKLLLLGAGESGKSTIVKQMKIIHEDGYSEDECKQYKVVVYSNTIQSIIAIIRAMGRLKIDFGEAARADDARQLFVLAGSAEEGVMTPELAGVIKRLWRDGGVQACFSRSREYQLNDSASYYLNDLDRISQSNYIPTQQDVLRTRVKTTGIVETHFTFKDLYFKMFDVGGQRSERKKAIHCFEGVTAIIFCVALSDYDLVLAEDEEMNRMHESMKLFDSICNNKWFTETSIILFLNKKDLFEEKIKRSPLTICYPEYTGSNTYEEAAAYIQCQFEDLNRRKDTKEIYTHFTCATDTKNVQFVFDAVTDVIIKNNLKECGLY [chain 1 W211A]	> 20	> 40
chain 1 MGCTLSAEDKAAVERSKMIDRNLREDGEKAAKEVKLLLLGAGESGKSTIVKQMKIIHEDGYSEDECKQYKVVVYSNTIQSIIAIIRAMGRLKIDFGEAARADDARQLFVLAGSAEEGVMTPELAGVIKRLWRDGGVQACFSRSREYQLNDSASYYLNDLDRISQSNYIPTQQDVLRTRVKTTGIVETHFTFKDLYFKMFDVGGQRSERKKWIHCFEGVTAIIFCVALSDYDLVLAEDEEMNRMHESMKLFDSICNNKWATETSIILFLNKKDLFEEKIKRSPLTICYPEYTGSNTYEEAAAYIQCQFEDLNRRKDTKEIYTHFTCATDTKNVQFVFDAVTDVIIKNNLKECGLY [chain 1 F259A]		2.57
chain 1 MGCTLSAEDKAAVERSKMIDRNLREDGEKAAKEVKLLLLGAGESGKSTIVKQMKIIHEDGYSEDECKQYKVVVYSNTIQSIIAIIRAMGRLKIDFGEAARADDARQLFVLAGSAEEGVMTPELAGVIKRLWRDGGVQACFSRSREYQLNDSASYYLNDLDRISQSNYIPTQQDVLRTRVKTTGAVETHFTFKDLYFKMFDVGGQRSERKKWIHCFEGVTAIIFCVALSDYDLVLAEDEEMNRMHESMKLFDSICNNKWFTETSIILFLNKKDLFEEKIKRSPLTICYPEYTGSNTYEEAAAYIQCQFEDLNRRKDTKEIYTHFTCATDTKNVQFVFDAVTDVIIKNNLKECGLY [chain 1 I184A]		3.28
chain 1 MGCTLSAEDKAAVERSKMIDRNLREDGEKAAKEVKLLLLGAGESGKSTIVKQMKIIHEDGYSEDECKQYKVVVYSNTIQSIIAIIRAMGRLKIDFGEAARADDARQLFVLAGSAEEGVMTPELAGVIKRLWRDGGVQACFSRSREYQLNDSASYYLNDLDRISQSNYIPTQQDVLRTRVKTTGIVETHFTFKDLYFKMFDVGGQRSERKKWIHCFEGVTAIIFCVALSDYDLVLAEDEEMNRMHESMKLFDSICNNAWFTETSIILFLNKKDLFEEKIKRSPLTICYPEYTGSNTYEEAAAYIQCQFEDLNRRKDTKEIYTHFTCATDTKNVQFVFDAVTDVIIKNNLKECGLY [chain 1 K257A]		1.77
chain 1 MGCTLSAEDKAAVERSKMIDRNLREDGEKAAKEVKALLLGAGESGKSTIVKQMKIIHEDGYSEDECKQYKVVVYSNTIQSIIAIIRAMGRLKIDFGEAARADDARQLFVLAGSAEEGVMTPELAGVIKRLWRDGGVQACFSRSREYQLNDSASYYLNDLDRISQSNYIPTQQDVLRTRVKTTGIVETHFTFKDLYFKMFDVGGQRSERKKWIHCFEGVTAIIFCVALSDYDLVLAEDEEMNRMHESMKLFDSICNNKWFTETSIILFLNKKDLFEEKIKRSPLTICYPEYTGSNTYEEAAAYIQCQFEDLNRRKDTKEIYTHFTCATDTKNVQFVFDAVTDVIIKNNLKECGLY [chain 1 L36A]		1.22
chain 1 MGCTLSAEDKAAVERSKMIDRNLREDGEKAAKEVKLALLGAGESGKSTIVKQMKIIHEDGYSEDECKQYKVVVYSNTIQSIIAIIRAMGRLKIDFGEAARADDARQLFVLAGSAEEGVMTPELAGVIKRLWRDGGVQACFSRSREYQLNDSASYYLNDLDRISQSNYIPTQQDVLRTRVKTTGIVETHFTFKDLYFKMFDVGGQRSERKKWIHCFEGVTAIIFCVALSDYDLVLAEDEEMNRMHESMKLFDSICNNKWFTETSIILFLNKKDLFEEKIKRSPLTICYPEYTGSNTYEEAAAYIQCQFEDLNRRKDTKEIYTHFTCATDTKNVQFVFDAVTDVIIKNNLKECGLY [chain 1 L37A]		0.822
chain 1 MGCTLSAEDKAAVERSKMIDRNLREDGEKAAKEVKLLLAGAGESGKSTIVKQMKIIHEDGYSEDECKQYKVVVYSNTIQSIIAIIRAMGRLKIDFGEAARADDARQLFVLAGSAEEGVMTPELAGVIKRLWRDGGVQACFSRSREYQLNDSASYYLNDLDRISQSNYIPTQQDVLRTRVKTTGIVETHFTFKDLYFKMFDVGGQRSERKKWIHCFEGVTAIIFCVALSDYDLVLAEDEEMNRMHESMKLFDSICNNKWFTETSIILFLNKKDLFEEKIKRSPLTICYPEYTGSNTYEEAAAYIQCQFEDLNRRKDTKEIYTHFTCATDTKNVQFVFDAVTDVIIKNNLKECGLY [chain 1 L39A]		5.3
chain 1 MGCTLSAEDKAAVERSKMIDRNLREDGEKAAKEVKLLLLGAGESGKSTIVKQMKIIHEDGYSEDECKQYKVVVYSNTIQSIIAIIRAMGRLKIDFGEAARADDARQLFVLAGSAEEGVMTPELAGVIKRLWRDGGVQACFSRSREYQLNDSASYYLNDLDRISQSNYIPTQQDVLRTRVKTTGIVETHFTFKDLYFKMFDVGGQRSERKKWIHCFEGVTAIIFCVALSDYDLVLAEDEEMNRMHESMKHFDSICNNKWFTETSIILFLNKKDLFEEKIKRSPLTICYPEYTGSNTYEEAAAYIQCQFEDLNRRKDTKEIYTHFTCATDTKNVQFVFDAVTDVIIKNNLKECGLY [chain 1 L249H]		7.58
chain 1 MGCTLSAEDKAAVERSKMIDRNLREDGEKAAKEVKLLLLGAGESGKSTIVKQMKIIHEDGYSEDECKQYKVVVYSNTIQSIIAIIRAMGRLKIDFGEAARADDARQLFVLAGSAEEGVMTPELAGVIKRLWRDGGVQACFSRSREYQLNDSASYYLNDLDRISQSNYIPTQQDVLRTRVKTTGIVETHFTFKDLYFKMFDVGGQRSERKKWIHCFEGVTAIIFCVALSDYDLVLAEDEEMNRMHESMKVFDSICNNKWFTETSIILFLNKKDLFEEKIKRSPLTICYPEYTGSNTYEEAAAYIQCQFEDLNRRKDTKEIYTHFTCATDTKNVQFVFDAVTDVIIKNNLKECGLY [chain 1 L249V]		2.35
chain 1 MGCTLSAEDKAAVERSKMIDRNLREDGEKAAKEVKLLLLGAGESGKSTIVKQMKIIHEDGYSEDECKQYKVVVYSNTIQSIIAIIRAMGRLKIDFGEAARADDARQLFVLAGSAEEGVMTPELAGVIKRLWRDGGVQACFSRSREYQLNDSASYYLNDLDRISQSNYIPTQQDVLRTRVKTTGIVETHFTFKDLYFKMFDVGGQRSERKKWIHCFEGVTAIIFCVALSDYDLVLAEDEEMNRMHESMKLFDSICNAKWFTETSIILFLNKKDLFEEKIKRSPLTICYPEYTGSNTYEEAAAYIQCQFEDLNRRKDTKEIYTHFTCATDTKNVQFVFDAVTDVIIKNNLKECGLY [chain 1 N256A]		2.11
chain 1 MGCTLSAEDKAAVERSKMIDRNLREDGEKAAKEVKLLLLGAGESGKSTIVKQMKIIHEDGYSEDECKQYKVVVYSNTIQSIIAIIRAMGRLKIDFGEAARADDARQLFVLAGSAEEGVMTPELAGVIKRLWRDGGVQACFSRSREYQLNDSASYYLNDLDRISQSNYIPTQQDVLRTRVKTTGIVETHFTFKDLYFKMFDVGGQRSERKKWIHCFEGVTAIIFCVALSDYDLVLAEDEEMNRMHESMKLFDAICNNKWFTETSIILFLNKKDLFEEKIKRSPLTICYPEYTGSNTYEEAAAYIQCQFEDLNRRKDTKEIYTHFTCATDTKNVQFVFDAVTDVIIKNNLKECGLY [chain 1 S252A]		0.417
chain 1 MGCTLSAEDKAAVERSKMIDRNLREDGEKAAKEVKLLLLGAGESGKSTIVKQMKIIHEDGYSEDECKQYKVVVYSNTIQSIIAIIRAMGRLKIDFGEAARADDARQLFVLAGSAEEGVMTPELAGVIKRLWRDGGVQACFSRSREYQLNDSASYYLNDLDRISQSNYIPTQQDVLRTRVKTTGIVETHFTFKDLYFKMFDVGGQRSERKKWIHCFEGVTAIIFCVALSDYDLVLAEDEEMNRMHESMKLFDDICNNKWFTETSIILFLNKKDLFEEKIKRSPLTICYPEYTGSNTYEEAAAYIQCQFEDLNRRKDTKEIYTHFTCATDTKNVQFVFDAVTDVIIKNNLKECGLY [chain 1 S252D]		5.32
chain 1 MGCTLSAEDKAAVERSKMIDRNLREDGEKAAKEVKLLLLGAGESGKSTIVKQMKIIHEDGYSEDECKQYKVVVYSNTIQSIIAIIRAMGRLKIDFGEAARADDARQLFVLAGSAEEGVMTPELAGVIKRLWRDGGVQACFSRSREYQLNDSASYYLNDLDRISQSNYIPTQQDVLRTRVKTTGIVETHFTFKDLYFKMFDVGGQRSERKKWIHCFEGATAIIFCVALSDYDLVLAEDEEMNRMHESMKLFDSICNNKWFTETSIILFLNKKDLFEEKIKRSPLTICYPEYTGSNTYEEAAAYIQCQFEDLNRRKDTKEIYTHFTCATDTKNVQFVFDAVTDVIIKNNLKECGLY [chain 1 V218A]		0.623
